Measured values: FireProtDB (doi:10.1021/bi047926u)
“And” between values parts separate entries of the source, which are not always exact repeats. Equal entries are not always repeated.

B1: Manganese-dependent inorganic pyrophosphatase, P37487 (parent)
chain: MEKILIFGHQNPDTDTICSAIAYADLKNKLGFNAEPVRLGQVNGETQYALDYFKQESPRLVETAANEVNGVILVDHNERQQSIKDIEEVQVLEVIDHHRIANFETAEPLYYRAEPVGCTATILNKMYKENNVKIEKEIAGLMLSAIISDSLLFKSPTCTDQDVAAAKELAEIAGVDAEEYGLNMLKAGADLSKKTVEELISLDAKEFTLGSKKVEIAQVNTVDIEDVKKRQAELEAVISKVVAEKNLDLFLLVITDILENDSLALAIGNEAAKVEKAFNVTLENNTALLKGVVSRKKQVVPVLTDAMAE

Variants of: B1
Settings: Bacillus subtilis (strain 168); pH 7.2; Thermal; CD; TES-KOH 21 mM; KCl 4 mM; reversible: No; structure 1K23; whole UniProt chain shown

Q: For MEKILIFGQQNPDTDTICSAIAYADLKNKLGFNAEPVRLGQVNGETQYALDYFKQESPRLVETAANEVNGVILVDHNERQQSIKDIEEVQVLEVIDHHRIANFETAEPLYYRAEPVGCTATILNKMYKENNVKIEKEIAGLMLSAIISDSLLFKSPTCTDQDVAAAKELAEIAGVDAEEYGLNMLKAGADLSKKTVEELISLDAKEFTLGSKKVEIAQVNTVDIEDVKKRQAELEAVISKVVAEKNLDLFLLVITDILENDSLALAIGNEAAKVEKAFNVTLENNTALLKGVVSRKKQVVPVLTDAMAE [H9Q], which Tm is on record?
A: Its Tm is 54 °C.

Q: Which Tm does the source give for MEKILIFGHQNPDTDTICSAIAYADLKNKLGFNAEPVRLGQVNGETQYALDYFKQESPRLVETAANEVNGVILVDQNERQQSIKDIEEVQVLEVIDHHRIANFETAEPLYYRAEPVGCTATILNKMYKENNVKIEKEIAGLMLSAIISDSLLFKSPTCTDQDVAAAKELAEIAGVDAEEYGLNMLKAGADLSKKTVEELISLDAKEFTLGSKKVEIAQVNTVDIEDVKKRQAELEAVISKVVAEKNLDLFLLVITDILENDSLALAIGNEAAKVEKAFNVTLENNTALLKGVVSRKKQVVPVLTDAMAE [H76Q] here?
A: The Tm was 59 °C.

Q: Which Tm does the source give for MEKILIFGHQNPDTDTICSAIAYADLKNKLGFNAEPVRLGQVNGETQYALDYFKQESPRLVETAANEVNGVILVDHNERQQSIKDIEEVQVLEVIDHQRIANFETAEPLYYRAEPVGCTATILNKMYKENNVKIEKEIAGLMLSAIISDSLLFKSPTCTDQDVAAAKELAEIAGVDAEEYGLNMLKAGADLSKKTVEELISLDAKEFTLGSKKVEIAQVNTVDIEDVKKRQAELEAVISKVVAEKNLDLFLLVITDILENDSLALAIGNEAAKVEKAFNVTLENNTALLKGVVSRKKQVVPVLTDAMAE [H98Q] here?
A: Its Tm is 48 °C.

Q: Which Tm does the source give for MEKILIFGHQNPDTDTICSAIAYADLKNKLGFNAEPVRLGQVNGETQYALDYFKQESPRLVETAANEVNGVILVDHNERQQSIKDIEEVQVLEVIDHHRIANFETAEPLYYRAEPVGCTATILNKMYKENNVKIEKEIAGLMLSAIISDSLLFKSPTCTDQDVAAAKELAEIAGVDAEEYGLNMLKAGADLSKKTVEELISLEAKEFTLGSKKVEIAQVNTVDIEDVKKRQAELEAVISKVVAEKNLDLFLLVITDILENDSLALAIGNEAAKVEKAFNVTLENNTALLKGVVSRKKQVVPVLTDAMAE [D203E] here?
A: The Tm was 42 °C.

Q: Which Tm does the source give for MEKILIFGHQNPETDTICSAIAYADLKNKLGFNAEPVRLGQVNGETQYALDYFKQESPRLVETAANEVNGVILVDHNERQQSIKDIEEVQVLEVIDHHRIANFETAEPLYYRAEPVGCTATILNKMYKENNVKIEKEIAGLMLSAIISDSLLFKSPTCTDQDVAAAKELAEIAGVDAEEYGLNMLKAGADLSKKTVEELISLDAKEFTLGSKKVEIAQVNTVDIEDVKKRQAELEAVISKVVAEKNLDLFLLVITDILENDSLALAIGNEAAKVEKAFNVTLENNTALLKGVVSRKKQVVPVLTDAMAE [D13E] here?
A: The Tm was 44 °C and 42 °C.

Q: For MEKILIFGHQNPDTDTICSAIAYADLKNKLGFNAEPVRLGQVNGETQYALDYFKQESPRLVETAANEVNGVILVDHNERQQSIKDIEEVQVLEVIDHHRIANFETAEPLYYRAEPVGCTATILNKMYKENNVKIEKEIAGLMLSAIISESLLFKSPTCTDQDVAAAKELAEIAGVDAEEYGLNMLKAGADLSKKTVEELISLDAKEFTLGSKKVEIAQVNTVDIEDVKKRQAELEAVISKVVAEKNLDLFLLVITDILENDSLALAIGNEAAKVEKAFNVTLENNTALLKGVVSRKKQVVPVLTDAMAE [D149E], which Tm is on record?
A: Its Tm is 52 °C and 47 °C.

Same assay, conditions: Bacillus subtilis (strain 168); pH 7.2; Thermal; CD; TES-KOH 21 mM; KCl 4 mM; transition: 3; reversible: No; structure 1K23; whole UniProt chain shown

Q: For MEKILIFGHQNPETDTICSAIAYADLKNKLGFNAEPVRLGQVNGETQYALDYFKQESPRLVETAANEVNGVILVDHNERQQSIKDIEEVQVLEVIDHHRIANFETAEPLYYRAEPVGCTATILNKMYKENNVKIEKEIAGLMLSAIISDSLLFKSPTCTDQDVAAAKELAEIAGVDAEEYGLNMLKAGADLSKKTVEELISLDAKEFTLGSKKVEIAQVNTVDIEDVKKRQAELEAVISKVVAEKNLDLFLLVITDILENDSLALAIGNEAAKVEKAFNVTLENNTALLKGVVSRKKQVVPVLTDAMAE [D13E], which Tm is on record?
A: The Tm was 69 °C.
